{"source": "paper PMC7354924", "key": {"[1]": {"target": "growth differentiation factor 5 (GDF5), wild type (UniProt P43026)", "assay": "SPR; ProteOn XPR36; BMP2 (570 RU), GDF5 (470 RU), TGF-β2 (300 RU) or activin A (350 RU) amine-coupled to a GLC sensor chip; analyte perfused (RGMB 50 to 1.56 nM at 150 or 100 µl/min; BMPR1A 1000 to 31.25 nM at 100 µl/min); 20 mM HEPES pH 7.4, 500 mM NaCl, 3.4 mM EDTA, 0.005% (v/v) Tween 20; 25 °C; Langmuir 1:1 kinetic fit (parameters local for RGMB), Kd = koff/kon; apparent"}, "[2]": {"target": "growth differentiation factor 5 (GDF5), wild type (UniProt P43026)", "assay": "SPR; BMPR1A with BMP2, GDF5 and GDF5 variants; set-up not told for this pair in the main text (values in the discussion, SI Appendix Table S1); taken as the ProteOn set-up with immobilized ligands"}, "[3]": {"target": "bone morphogenetic protein 2 (BMP2) (UniProt P12643)", "sequence (P12643 283-396)": "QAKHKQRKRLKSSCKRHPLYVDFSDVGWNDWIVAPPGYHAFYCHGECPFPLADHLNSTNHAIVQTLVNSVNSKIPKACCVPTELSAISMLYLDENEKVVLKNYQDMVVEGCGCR", "assay": "SPR"}, "[4]": {"target": "growth differentiation factor 5 (GDF5), wild type (UniProt P43026)", "assay": "SPR; Biacore T200, 25 °C; GDF5 amine-coupled to a CM5 chip (830, 970 or 1370 RU); RGMBND variants or BSA as analytes; 0.5 M NaCl, 20 mM HEPES pH 7.4, 0.05% (v/v) Tween 20; Kd from the dose-dependency of equilibrium binding, 1:1 Langmuir isotherm"}, "[5]": {"target": "bone morphogenetic protein 2 (BMP2) (UniProt P12643)"}, "[6]": {"target": "growth differentiation factor 5 (GDF5), wild type (UniProt P43026)", "assay": "SPR; ProteOn XPR36; BMP2 (570 RU) or GDF5 (470 RU) amine-coupled to a GLC sensor chip; ActR2b ectodomain perfused at 6 µM to 187.5 nM, 100 µl/min; 0.005% (v/v) Tween 20 buffer; Kd from the dose-dependency of equilibrium binding, one-site model; apparent"}, "[7]": {"target": "growth differentiation factor 5 (GDF5), wild type (UniProt P43026)"}, "[8]": {"target": "bone morphogenetic protein 2 (BMP2) (UniProt P12643)", "assay": "SPR; ProteOn XPR36, 25 °C; BMP/TGF-β ligands immobilized on GLC chips by amine coupling, RGM proteins as analytes; 10 mM Hepes pH 7.4, 500 mM NaCl, 3.4 mM EDTA, 0.005% Tween20; 1:1 Langmuir kinetic fit, Kd = koff/kon; apparent Kd"}, "[9]": {"target": "growth differentiation factor 5 (GDF5), wild type (UniProt P43026)", "assay": "SPR; ProteOn XPR36, 25 °C; BMP/TGF-β ligands immobilized on GLC chips by amine coupling, RGM proteins as analytes; 10 mM Hepes pH 7.4, 500 mM NaCl, 3.4 mM EDTA, 0.005% Tween20; 1:1 Langmuir kinetic fit, Kd = koff/kon; apparent Kd"}}, "data": [{"substance": "BMPR1A ectodomain protein (residues Gln24 to Arg152) (from UniProt P36894 24-152) (receptor)", "values": [{"measurement": "koff", "setting": "[1]", "result": 0.0048, "unit": "s⁻¹"}, {"measurement": "kon", "setting": "[1]", "result": 90000, "unit": "M⁻¹ s⁻¹"}]}, {"substance": "BMPR1A extracellular domain (BMPR1AECD, Thr55–Val141) (receptor)", "values": [{"measurement": "Kd", "setting": "[2]", "result": 125, "unit": "nM"}, {"measurement": "Kd", "setting": "[3]", "result": 59, "unit": "nM"}]}, {"substance": "RGMBND His106Arg (domain or fragment)", "values": [{"measurement": "Kd", "setting": "[4]", "result": "> 200000", "unit": "nM"}]}, {"substance": "extracellular domain of human RGMB (RGMBECD, Gln53–Ser411) (domain or fragment)", "values": [{"measurement": "BMP2 (3 nM) BMP-responsive luciferase reporter in LLC-PK1 cells expressing full-length membrane-anchored RGMB", "setting": "[5]", "result": 3, "unit": "fold"}]}, {"substance": "murine activin type-2 receptor ActR2b, soluble ectodomain (residues Gly20 to Glu127) (from UniProt P27040 20-127)", "values": [{"measurement": "Kd", "setting": "[6]", "result": 1300, "unit": "nM"}]}, {"substance": "soluble RGMA extracellular domain (RGMAECD) for the ProteOn SPR studies (from UniProt Q96B86 48-424) (domain or fragment)", "values": [{"measurement": "GDF5 (30 nM) BMP-responsive luciferase reporter in LLC-PK1 cells expressing full-length membrane-anchored RGMA", "setting": "[7]", "result": 2, "unit": "fold"}]}, {"substance": "soluble RGMB extracellular domain (RGMBECD) for the ProteOn SPR studies (from UniProt Q6NW40 46-413) (domain or fragment)", "values": [{"measurement": "Kd", "setting": "[8]", "result": 4.2, "unit": "nM"}, {"measurement": "Kd", "setting": "[9]", "result": 2.7, "unit": "nM"}]}, {"substance": "soluble RGMC extracellular domain (RGMCECD) for the ProteOn SPR studies (from UniProt Q6ZVN8 36-400) (domain or fragment)", "values": [{"measurement": "GDF5 (30 nM) BMP-responsive luciferase reporter in LLC-PK1 cells expressing full-length membrane-anchored RGMC", "setting": "[7]", "result": 2, "unit": "fold"}]}]}
